1 variant from IntAct's records for PubMed 22632831 can be followed below.

Sequences and labels used below:
B1: Transcription cofactor vestigial-like protein 1 (Mus musculus), Q99NC0 (parent)
chain: MEEMKKNGVWIPESSQKPVKTEWNAGSVIFTYFEGDINSMVDEHFSRALRNLKRPHKCSSSSHSDNLTLKNGVNKTRTDTSHTDRERKVESSQTENSGELKDVPVEEKGTNKSMPPNQRHLSSWTIAQPAASPENGARSSSLDEYGLKAMDQHSLSMPKTPSALPLEPWHFSSLARPGFIAPAYFPVFPDRHLTPEVYRVFPDRHLTPEVYHVFPDRHLTPEVYPDGRCGPLQHLVQQDRYQNHPLEPAARENCSPAKIAGSTGSLMNLPPYPVHYKKKICARGAASASLDDERSPSPKRRRDAYYY

The variants in this test derive from B1. Particulars: with Tead4, Q62296-1.
Sequence of Tead4, Q62296-1 (Q62296 whole entry): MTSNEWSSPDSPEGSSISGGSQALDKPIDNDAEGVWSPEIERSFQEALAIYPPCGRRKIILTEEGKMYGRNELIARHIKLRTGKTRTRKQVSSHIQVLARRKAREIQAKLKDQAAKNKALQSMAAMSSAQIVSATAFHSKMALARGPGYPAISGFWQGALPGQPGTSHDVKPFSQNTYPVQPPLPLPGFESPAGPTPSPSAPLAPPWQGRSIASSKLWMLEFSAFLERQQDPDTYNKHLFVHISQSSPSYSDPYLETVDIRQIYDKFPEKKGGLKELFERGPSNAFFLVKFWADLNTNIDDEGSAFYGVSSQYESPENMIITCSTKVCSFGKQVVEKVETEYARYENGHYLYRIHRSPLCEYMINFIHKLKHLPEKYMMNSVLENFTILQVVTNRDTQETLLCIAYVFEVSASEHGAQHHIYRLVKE
Take H44A;F45A: the “effect of a mutation on the interaction” value was “decreasing interaction strength”.
